Numbering of substitutions follows the chain as printed. Where only a bound is given, the exact number is not on record here.

This note sets out measurements from US20160185837A1, “GIP AND GLP-1 RECEPTOR DUAL-AGONISTS FOR THE TREATMENT OF DIABETES” (Medimmune Limited, priority 2013, published 2016).

Holding throughout (assay): cell-based or functional assay
In one assay the target is rat GLP-1 receptor (rat) (UniProt P32301).
For assay [1], the target named is human GLP-1 receptor (human) (UniProt P43220).
The target of assay [2] is T1, human GIP receptor (human) (UniProt P48546).
T1 sequence (looked up): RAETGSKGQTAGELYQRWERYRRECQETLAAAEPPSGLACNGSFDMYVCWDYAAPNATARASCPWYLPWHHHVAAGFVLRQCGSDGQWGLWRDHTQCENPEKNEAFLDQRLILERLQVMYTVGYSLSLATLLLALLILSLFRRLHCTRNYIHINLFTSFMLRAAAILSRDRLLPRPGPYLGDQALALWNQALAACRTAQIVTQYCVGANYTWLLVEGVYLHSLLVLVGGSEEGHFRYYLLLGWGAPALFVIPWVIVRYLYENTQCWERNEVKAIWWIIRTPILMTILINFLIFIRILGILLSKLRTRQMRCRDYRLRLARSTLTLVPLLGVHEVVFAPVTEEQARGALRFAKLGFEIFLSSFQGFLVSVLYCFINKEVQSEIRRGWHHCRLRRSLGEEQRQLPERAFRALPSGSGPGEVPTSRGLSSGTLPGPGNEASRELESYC

For assay [3], the target named is T2, mouse GIP receptor (mouse) (UniProt Q0P543).
T2 sequence (looked up): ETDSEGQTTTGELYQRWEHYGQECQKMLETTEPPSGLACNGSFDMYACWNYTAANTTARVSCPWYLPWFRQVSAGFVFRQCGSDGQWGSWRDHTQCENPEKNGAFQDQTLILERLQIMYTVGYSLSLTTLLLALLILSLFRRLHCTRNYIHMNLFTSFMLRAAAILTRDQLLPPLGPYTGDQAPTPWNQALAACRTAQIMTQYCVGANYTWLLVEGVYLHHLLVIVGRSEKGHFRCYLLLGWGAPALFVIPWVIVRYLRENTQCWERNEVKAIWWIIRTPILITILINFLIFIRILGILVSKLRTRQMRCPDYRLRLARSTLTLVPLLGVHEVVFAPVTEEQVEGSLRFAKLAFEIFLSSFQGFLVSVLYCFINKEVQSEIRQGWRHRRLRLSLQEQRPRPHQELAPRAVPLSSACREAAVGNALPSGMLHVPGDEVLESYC

For another assay, the target named is T3, rat GIP receptor (rat) (UniProt P43219).
T3 sequence (looked up): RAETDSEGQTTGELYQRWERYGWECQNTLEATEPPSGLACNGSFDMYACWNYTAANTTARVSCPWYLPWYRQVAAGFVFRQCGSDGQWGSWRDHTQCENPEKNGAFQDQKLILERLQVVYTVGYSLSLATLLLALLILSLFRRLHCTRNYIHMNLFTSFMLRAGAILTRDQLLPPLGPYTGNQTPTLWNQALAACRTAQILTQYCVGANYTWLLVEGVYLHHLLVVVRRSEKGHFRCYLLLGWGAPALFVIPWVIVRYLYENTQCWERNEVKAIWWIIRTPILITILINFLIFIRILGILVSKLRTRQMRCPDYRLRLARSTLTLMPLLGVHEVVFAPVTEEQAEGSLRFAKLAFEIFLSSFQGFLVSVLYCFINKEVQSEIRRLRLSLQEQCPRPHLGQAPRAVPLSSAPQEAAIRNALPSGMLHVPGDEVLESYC

Assay [4] addresses human glucagon receptor (human) (UniProt P47871).
Assay [5] concerns the target mouse GLP-1 receptor (mouse) (UniProt O35659).

Sequence of human GLP-1 receptor (human) (P43220 24-463): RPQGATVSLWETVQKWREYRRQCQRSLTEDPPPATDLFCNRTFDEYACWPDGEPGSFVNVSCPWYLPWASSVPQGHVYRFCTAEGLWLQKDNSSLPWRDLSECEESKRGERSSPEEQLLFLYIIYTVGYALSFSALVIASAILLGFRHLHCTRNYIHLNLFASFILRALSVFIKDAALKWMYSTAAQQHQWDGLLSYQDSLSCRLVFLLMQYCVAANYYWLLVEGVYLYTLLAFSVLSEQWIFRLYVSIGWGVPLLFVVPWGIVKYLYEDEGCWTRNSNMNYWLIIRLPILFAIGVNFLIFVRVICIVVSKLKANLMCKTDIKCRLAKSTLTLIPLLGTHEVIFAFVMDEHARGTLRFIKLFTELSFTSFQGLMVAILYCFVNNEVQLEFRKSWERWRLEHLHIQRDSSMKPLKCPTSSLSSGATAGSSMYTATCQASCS
Sequence of human glucagon receptor (human) (P47871 26-477): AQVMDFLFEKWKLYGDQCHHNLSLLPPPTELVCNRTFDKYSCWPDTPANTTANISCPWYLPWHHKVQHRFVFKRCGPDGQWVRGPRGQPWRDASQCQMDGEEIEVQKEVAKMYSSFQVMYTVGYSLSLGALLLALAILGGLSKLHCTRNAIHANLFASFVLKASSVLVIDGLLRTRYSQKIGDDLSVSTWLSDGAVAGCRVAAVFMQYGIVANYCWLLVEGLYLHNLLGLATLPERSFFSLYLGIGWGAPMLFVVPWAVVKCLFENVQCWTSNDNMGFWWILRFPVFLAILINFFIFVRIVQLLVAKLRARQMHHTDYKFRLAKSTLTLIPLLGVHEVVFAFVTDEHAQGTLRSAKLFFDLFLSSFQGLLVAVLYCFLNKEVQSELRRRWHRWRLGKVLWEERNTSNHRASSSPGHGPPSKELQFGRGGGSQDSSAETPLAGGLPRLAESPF
Sequence of mouse GLP-1 receptor (mouse) (O35659 22-463): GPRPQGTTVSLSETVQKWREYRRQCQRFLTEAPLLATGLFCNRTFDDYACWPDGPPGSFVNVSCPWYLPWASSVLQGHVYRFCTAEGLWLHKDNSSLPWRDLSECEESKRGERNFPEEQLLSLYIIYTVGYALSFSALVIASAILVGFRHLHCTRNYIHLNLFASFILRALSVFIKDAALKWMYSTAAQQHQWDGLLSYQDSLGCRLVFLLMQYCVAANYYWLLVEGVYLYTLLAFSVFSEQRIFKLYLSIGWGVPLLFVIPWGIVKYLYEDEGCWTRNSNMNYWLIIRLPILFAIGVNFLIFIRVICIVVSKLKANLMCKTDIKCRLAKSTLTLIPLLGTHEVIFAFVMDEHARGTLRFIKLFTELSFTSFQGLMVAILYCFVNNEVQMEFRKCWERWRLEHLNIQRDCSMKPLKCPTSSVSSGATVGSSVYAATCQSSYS
Sequence of rat GLP-1 receptor (rat) (P32301 22-463): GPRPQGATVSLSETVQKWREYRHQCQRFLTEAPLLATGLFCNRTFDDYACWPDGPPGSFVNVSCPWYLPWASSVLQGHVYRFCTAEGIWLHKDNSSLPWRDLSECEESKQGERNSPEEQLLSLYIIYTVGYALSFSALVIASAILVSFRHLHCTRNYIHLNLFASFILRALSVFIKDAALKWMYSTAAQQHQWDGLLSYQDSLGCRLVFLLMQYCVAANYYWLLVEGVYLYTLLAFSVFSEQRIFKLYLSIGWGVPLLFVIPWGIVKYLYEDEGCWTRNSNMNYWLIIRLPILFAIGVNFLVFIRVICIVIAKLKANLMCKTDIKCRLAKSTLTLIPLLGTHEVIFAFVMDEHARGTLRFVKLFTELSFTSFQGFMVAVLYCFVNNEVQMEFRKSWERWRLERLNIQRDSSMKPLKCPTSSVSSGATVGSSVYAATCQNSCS

B1: IP339 (Fc fusion)
chain: YSEGTFTSDYSKLLEKEAQRLFIEWLLAGGGGGGGSGGGGSGGGGSGGGGSGGGGSGGGGSA
Take B1: the cAMP EC50 with rat GLP-1 receptor (rat) amounted to 0.05 nM; in assay [1], 0.18 nM; in assay [2], 0.0098 nM; in assay [3] it was 0.091 nM; with rat GIP receptor (rat), 0.012 nM; in assay [4] it was 23 nM. In assay [5], the cAMP EC50 turned out to be 1.6 nM.

B2: IP275 (Fc fusion)
chain: YSEGTFTSDYSKLLEKEAQRLFIEWLLKGPGGGGGSGGGGSGGGGSGGGGSATHTCPPC
In the case of B2, the cAMP EC50 in the assay with rat GLP-1 receptor (rat) is 0.062 nM; in assay [1] it was 0.92 nM; in assay [2], 0.0087 nM; in assay [3], 0.26 nM; with rat GIP receptor (rat), 0.014 nM; in assay [4], 230 nM. In assay [5], the cAMP EC50 was 1.7 nM.

B3: IP289 (Fc fusion)
chain: B2 chain with Q19E
On to B3, for which the cAMP EC50 with rat GLP-1 receptor (rat) amounted to 0.23 nM; in assay [1], 3.4 nM; in assay [2] it was 0.01 nM; in assay [3] it was 0.44 nM; with rat GIP receptor (rat), 0.02 nM; in assay [4], 240 nM. In addition, the cAMP EC50 in assay [5] amounted to 6.8 nM.

B4: IP209 (Fc fusion)
chain: YSEGTFTSDYSSYMERQAIDEFIAWLLKGGAAAGGSGSTASSGSGSATGGGGAATHTCPPCPAPEF
For the molecule B4, the cAMP EC50 in the assay with rat GLP-1 receptor (rat) is 0.075 nM; in assay [1] it was 0.23 nM; in assay [2], 0.058 nM; in assay [3], 4.9 nM; with rat GIP receptor (rat), 0.22 nM; in assay [5] it was 0.84 nM. The cAMP EC50, Batch 2 with rat GLP-1 receptor (rat) is 0.091 nM; in assay [1], 0.2 nM; in assay [2], 0.028 nM; in assay [3], > 6300 nM; with rat GIP receptor (rat), 1.3 nM; in assay [4], > 6270 nM. For the same molecule, in assay [5], the cAMP EC50, Batch 2 came out at 1.6 nM.

B5: IP299 (Fc fusion)
chain: YSEGTFISDYSKLLEEEAVRDFVEWLKAGGGGGGGSGGGGSGGGGSGGGGSATHTCPPC
For the molecule B5, the cAMP EC50 with rat GLP-1 receptor (rat) is 19 nM; in assay [1], > 3640 nM; in assay [2], 0.021 nM; in assay [3], 210 nM; in the assay with rat GIP receptor (rat), 0.11 nM; in assay [4], 53 nM. In assay [5], the cAMP EC50 was > 3640 nM.

B6: IP359 (Fc fusion)
chain: YSEGTFTSDYSKLLEEEAVRLFIEHLLAGGGGGGSGGGGSGGGGSGGGGSATHTCPPC
Turning to B6, the cAMP EC50 with rat GLP-1 receptor (rat) was found to be 0.04 nM; in assay [1], 0.061 nM; in assay [2] it was 0.011 nM; in assay [3] it was 8.3 nM; with rat GIP receptor (rat), 0.039 nM; in assay [4], 43 nM. In assay [5], this molecule yielded a cAMP EC50 of 0.2 nM.

B7: IP412 (Fc fusion)
chain: B6 chain with V19N, H25W
On to B7, for which the cAMP EC50 in the assay with rat GLP-1 receptor (rat) was 0.022 nM; in assay [1], 0.073 nM; in assay [3] it was 0.4 nM; with rat GIP receptor (rat), 0.018 nM; in assay [4], > 440 nM; in assay [5] it was 1.2 nM. For the same molecule, the cAMP EC50, hGIPr (C3) line in assay [2] was found to be 1.3 nM.

B8: IP380 (Fc fusion)
chain: B6 chain with H25F
On to B8, for which the cAMP EC50 turned out to be 0.031 nM with rat GLP-1 receptor (rat); 0.11 nM in assay [1]; 0.0084 nM in assay [2]; 6.6 nM in assay [3]; 0.06 nM with rat GIP receptor (rat); 25 nM in assay [4]. The molecule further registered a cAMP EC50 in assay [5] of 1.2 nM.

B9: IP381 (Fc fusion)
chain: B6 chain with H25Y
B9: the cAMP EC50 with rat GLP-1 receptor (rat) was found to be 0.027 nM; in assay [1], 0.091 nM; in assay [2], 0.0099 nM; in assay [3] it was 5.4 nM; with rat GIP receptor (rat), 0.045 nM; in assay [4], 18 nM. The molecule further returned a cAMP EC50 in assay [5] of 0.73 nM.

B10: IP402 (Fc fusion)
chain: YSEGTFISDYSIAMDKIHQQDFVNWLLAQKGSGGGGSGGGGSGGGGSGGGGSGGGGSGGGGSGGGGSACPPC
As for B10, the cAMP EC50 with rat GLP-1 receptor (rat) amounted to 11 nM; in assay [1], 31 nM; in assay [2], 0.038 nM; in assay [3] it was 0.033 nM; in the assay with rat GIP receptor (rat), 0.0068 nM; in assay [4] it was 200 nM. This molecule also returned a cAMP EC50 in assay [5] of 850 nM.

B11: IP247 (Fc fusion)
chain: YSEGTFTSDYSKLLEKIHQQLFIEWLVKGPAAAGGSGSTASSGSGSATGGGGAATHTCPPCPAPEF
Regarding B11, the cAMP EC50 with rat GLP-1 receptor (rat) was 11 nM; in assay [1], 63 nM; in assay [2], 0.019 nM; in assay [3], 2.3 nM; in the assay with rat GIP receptor (rat), 0.03 nM; in assay [4], > 420 nM. The molecule further returned a cAMP EC50 in assay [5] of 280 nM.

B12: IP389 (Fc fusion)
chain: YSEGTFISDYSIAMDKIHQQDFVNWLLAQKGGGGGSGGGGSGGGGSGGGGSGGGGSGGGGSGGGGSACPPC
As for B12, the cAMP EC50 with rat GLP-1 receptor (rat) was 9.9 nM; in assay [1], 65 nM; in assay [2], 0.0027 nM; in assay [3] it was 0.017 nM; with rat GIP receptor (rat), 0.0072 nM; in assay [4] it was > 269 nM. In addition, the cAMP EC50 in assay [5] turned out to be 1300 nM.

B13: IP392 (Fc fusion)
chain: YSEGTFISDYSIAMDKIHQQDFVNWLLAQKGAANDWKHNITQGGGGSGGGGSGGGGSGGGGSGGGGSGGGGSACPPC
For B13, the cAMP EC50 in the assay with rat GLP-1 receptor (rat) was 720 nM; in assay [1], 2800 nM; in assay [2], 0.0026 nM; in assay [3], 0.031 nM; with rat GIP receptor (rat), 0.0076 nM; in assay [4], 530 nM. Also, in assay [5], the cAMP EC50 was > 17100 nM.

B14: IP398 (Fc fusion)
chain: B13 chain with A32K, A33K
B14: the cAMP EC50 came out at 14000 nM in the assay with rat GLP-1 receptor (rat); 9500 nM in assay [1]; 0.0037 nM in assay [2]; 0.012 nM in assay [3]; 0.0056 nM with rat GIP receptor (rat); 1600 nM in assay [4]. Besides, in assay [5], the cAMP EC50 is > 17200 nM.

B15: IP387 (Fc fusion)
chain: YSEGTFISDYSIAMDKIHQQDFVNWLLAQKGGGGGSGGGGSGGGGSGGGGSGGGGSGGGGSGGGGSGGGGSACPPC
For B15, the cAMP EC50 in the assay with rat GLP-1 receptor (rat) was determined as 110 nM; in assay [1] it was 370 nM; in assay [2] it was 0.0045 nM; in assay [3] it was 0.019 nM; with rat GIP receptor (rat), 0.0075 nM; in assay [4] it was 220 nM. Besides, the cAMP EC50 in assay [5] was > 1470 nM.

B16: IP301 (Fc fusion)
chain: YSEGTFTSDVSSYLEREAIDEFIAWLLKGGAAAGGSGSTASSGSGSATGGGGAATHTCPPC
As for B16, the cAMP EC50 came out at 0.058 nM in the assay with rat GLP-1 receptor (rat); 0.31 nM in assay [1]; 0.12 nM in assay [2]; 22 nM in assay [3]; 4.7 nM with rat GIP receptor (rat); 12000 nM in assay [4]. Besides, in assay [5], the cAMP EC50 was found to be 1.9 nM.

B17: IP306 (Fc fusion)
chain: B16 chain with V10Y, S12K, Y13L, E17Q
With B17, the cAMP EC50 with rat GLP-1 receptor (rat) was 0.015 nM; in assay [1] it was 0.1 nM; in assay [2], 0.011 nM; in assay [3], 0.25 nM; with rat GIP receptor (rat), 0.026 nM; in assay [4] it was 220 nM. Moreover, the cAMP EC50 in assay [5] stood at 0.25 nM.
